Laboratory results reported in patent publication US20220348650A1 (BIO THERA SOLUTIONS, published 2022).
Residue numbers refer to the chain shown, from its start. Each block holds one binder with its values, some of them ahead of it.

Key:
mouse TIGIT = target: T1, mouse TIGIT (mouse, UniProt P86176 29-148, limits assumed); experiment: ELISA on mouse TIGIT, OD450
T1 sequence: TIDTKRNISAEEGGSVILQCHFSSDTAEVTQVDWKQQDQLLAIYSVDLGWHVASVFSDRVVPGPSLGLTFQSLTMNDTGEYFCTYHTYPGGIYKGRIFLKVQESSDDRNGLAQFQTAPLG

[1] = target: T2, TIGIT-Fc fusion protein (human TIGIT extracellular region fused to human IgG1 constant region) (human); experiment: competition ELISA: TIGIT-Fc coated at 2 µg/mL, antibody titrated in 2 µg/mL PVR-Fc-bio (blocked ligand), OD450
[2] = target: T3, full-length human TIGIT on the cell surface (Jurkat-hTIGIT 2E6, CTI-Jurkat, primary human CD3+ cells) (human, UniProt Q495A1 22-244); experiment: cell-based or functional assay
T3 sequence (looked up): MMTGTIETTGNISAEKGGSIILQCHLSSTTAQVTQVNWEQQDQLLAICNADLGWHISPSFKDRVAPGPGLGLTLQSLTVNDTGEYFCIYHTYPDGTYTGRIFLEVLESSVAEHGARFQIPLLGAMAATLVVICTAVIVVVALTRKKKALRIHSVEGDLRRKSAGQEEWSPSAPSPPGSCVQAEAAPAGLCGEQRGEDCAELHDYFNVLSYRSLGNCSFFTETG

[3] = target: T4, human TIGIT (antigen of the ELISA and of the m10D8 Biacore assay; construct not stated) (human, UniProt Q495A1 22-141); experiment: ELISA, binding to TIGIT (FIG. 11)
T4 sequence: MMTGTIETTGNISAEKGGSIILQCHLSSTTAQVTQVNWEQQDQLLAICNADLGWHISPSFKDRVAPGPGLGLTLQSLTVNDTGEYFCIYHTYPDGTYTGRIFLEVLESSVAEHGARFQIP

[4] = target: T3, full-length human TIGIT on the cell …; experiment: flow cytometry competition with 80 nM biotinylated PVR-Fc on Jurkat-hTIGIT cells
Protocol: (§1) The antibody was serially two-fold diluted from 15 nM to the 10th concentration (including 0 nM). The 10 concentration gradients of antibody were separately transferred into 10 centrifuge tubes each containing 1×10⁶ Jurkat-hTIGIT cells. The cells were then resuspended, and the mixture was incubated at 4° C. for 1 hour. The cells were centrifuged. The supernatant was discarded and the cells were washed twice with PBS. The cells were resuspended in 100 μL of 1:2000 diluted streptavidin PE (Thermo, Cat. No.: 12-4317-87) and incubated at 4° C. for 40 minutes. The cells were centrifuged, and the supernatant was discarded. The cells were washed twice with PBS, resuspended in 200 μL of PBS, and were detected for fluorescent signal using a flow analyzer (mean FL2-A). Finally, the collected fluorescent signals were plotted by 4-parameter fitting for analysis, and the IC₅₀ was calculated.

[5] = target: T2, TIGIT-Fc fusion protein (human TIGIT …); experiment: competition ELISA, blocks PVR binding to TIGIT (method of Example 3)
[6] = target: T3, full-length human TIGIT on the cell …; experiment: flow cytometry on Jurkat-hTIGIT cells: antibody titrated against biotinylated PVR-Fc (blocked ligand), detected with streptavidin PE, mean FL2-A
Protocol: as §1

[7] = target: T3, full-length human TIGIT on the cell …; experiment: binding to Jurkat-hTIGIT 2E6 cells, flow cytometry (FIG. 23)
TIGIT-his tag antigen [8] = target: T5, TIGIT-his tag antigen (UniProt Q495A1 22-141, limits assumed); experiment: SPR-Biacore, TIGIT-his tag antigen (second batch)
T5 construct: also called univalent TIGIT-his; not shown: his tag
T5 sequence (looked up): T4 sequence

[9] = target: T4, human TIGIT (antigen of the ELISA and …); experiment: ELISA, binding to TIGIT (FIG. 12)
[10] = target: T4, human TIGIT (antigen of the ELISA and …); experiment: ELISA, binding to TIGIT
TIGIT-his tag antigen [11] = target: T5, TIGIT-his tag antigen; experiment: SPR-Biacore, TIGIT-his tag antigen
[12] = target: T4, human TIGIT (antigen of the ELISA and …); experiment: Biacore SPR; antigen not given
TIGIT-his tag antigen [13] = target: T5, TIGIT-his tag antigen; experiment: SPR-Biacore; series 3.125 to 50 nM printed on the panel

EC50 (read off the curve) (mouse TIGIT): ~0.02 µg/mL | IC50 [1]: 0.263 µg/mL
B1: 10A7 antibody (hamster anti-mouse TIGIT antibody, positive control) (antibody, V domains shown)
VH: EVQLVESGGGLTQPGKSLKLSCEASGFTFSSFTMHWVRQSPGKGLEWVAFIRSGSGIVFYADAVRGRFTISRDNAKNLLFLQMNDLKSEDTAMYYCARRPLGHNTFDSWGQGTLVTVSS
VL: DIVMTQSPSSLAVSPGEKVTMTCKSSQSLYYSGVKENLLAWYQQKPGQSPKLLIYYASIRFTGVPDRFTGSGSGTDYTLTITSVQAEDMGQYFCQQGINNPLTFGDGTKLEIKR
notes: also called positive anti-TIGIT antibody (10A7)

ADCC activity EC50 [2]: 0.0152 nM | ADCC activity, fold of h10D8OF [2]: 8.8 times that of h10D8OF
B2: h10D8OFKF (antibody, human IgG1, kappa, V domains shown)
VH: QVQLVESGGGVVQPGRSLRLDCKASGFTFSSYGMSWVRQAPGKGLELVATINSNGGSTYYPDSVKGRFTISRDNSKNTLFLQMNSLRAEDTAVYYCARLGTGTLGFAYWGQGTLVTVSS
VL: EIVMTQSPATLSLSPGERATLSCKASQDVKTAVSWYQQKPGQAPRLLIYWASTRATGIPARFSGSGSGTDYTLTISSLEPEDFAVYYCQQHYSTPWTFGQGTKVEIKR
modifications: fucose removed from the glycan (made in engineered CHO host cells)

EC50 [3]: 0.0233 µg/mL | IC50 [4]: 11.3 nM | IC50 [5]: 0.159 µg/mL | IC50 [6]: 0.656 nM | EC50 [7]: 0.696 nM | Kd (TIGIT-his tag antigen [8]): 3.63 nM | koff (TIGIT-his tag antigen [8]): 0.00183 s⁻¹ | kon (TIGIT-his tag antigen [8]): 502000 M⁻¹ s⁻¹ | EC50 [9]: 0.0427 µg/mL | ADCC activity EC50 [2]: 0.125 nM
B3: h10D8OF (antibody, human IgG1, kappa, V domains shown)
VH: B2 VH
VL: B2 VL
notes: Humanized m10D8, second round; LCDR2 is the mutant WASTRAT; also called anti-TIGIT antibody h10D8OF

EC50 [3]: 0.0256 µg/mL | IC50 [4]: 15.8 nM | IC50 [5]: 0.217 µg/mL
B4: h10D8V4 (antibody, human IgG1, kappa, V domains shown)
VH: B2 VH with V5Q, V11L, R16G, D21S, K23A, S75A, F80Y
VL: DIVMTQSPSTLSASVGDRVTITCKASQDVKTAVSWYQQKPGQPPKLLIYWASTRHTGVPDRFSGSGSGTDYTLTISSLQAEDVAVYYCQQHYSTPWTFGQGTKVEIKR

EC50 [10]: 0.0526 µg/mL | Kd (TIGIT-his tag antigen [11]): 14.1 nM | koff (TIGIT-his tag antigen [11]): 0.00114 s⁻¹ | kon (TIGIT-his tag antigen [11]): 81200 M⁻¹ s⁻¹
B5: h10D8V3 (antibody, human IgG1, kappa, V domains shown)
VH: B2 VH with Q1E, V11L, R16G, D21S, K23A, F80Y
VL: B4 VL with V3Q, T10S, Q42K, P43A, D60S, A80P, V83F, V85T, Q100G

EC50 [3]: 0.0241 µg/mL | IC50 [4]: 10.4 nM | IC50 [5]: 0.284 µg/mL
B6: h10D8V5 (antibody, human IgG1, kappa, V domains shown)
VH: QVQLQESGGGLVQPGGSLRLSCAASGFTFSSYGMSWVRQNPDKRLELVATINSNGGSTYYPDSVKGRFTISRDNAKNTLYLQMNSLRAEDTAMYYCARLGTGTLGFAYWGQGTLVTVSS
VL: B4 VL with S9K, P43S, V85L, Q100G

EC50 [10]: 0.0762 µg/mL | Kd (TIGIT-his tag antigen [11]): 2.18 nM | koff (TIGIT-his tag antigen [11]): 0.000446 s⁻¹ | kon (TIGIT-his tag antigen [11]): 205000 M⁻¹ s⁻¹
B7: h10D8V1 (antibody, human IgG1, kappa)
heavy: not shown
light: DIQMTQSPSTLSAFVGDTITITCKASQDVKTAVSWYQQKPGQPPKLLIYWASTRHTGVPDRFSGSGSGTDYTLTISSLQAEDVAVYYCQQHYSTPWTFGQGTKVDIKRTVAAPSVFIFPPSDEQLKSGTASVVCLLNNFYPREAKVQWKVDNALQSGNSQESVTEQDSKDSTYSLSSTLTLSKADYEKHKVYACEVTHQGLSSPVTKSFNRGEC
notes: Humanized m10D8, first round

EC50 [10]: 0.0924 µg/mL | Kd (TIGIT-his tag antigen [11]): 2.55 nM | koff (TIGIT-his tag antigen [11]): 0.000492 s⁻¹ | kon (TIGIT-his tag antigen [11]): 193000 M⁻¹ s⁻¹ | Kd (TIGIT-his tag antigen [8]): 0.468 nM | koff (TIGIT-his tag antigen [8]): 0.00048 s⁻¹ | kon (TIGIT-his tag antigen [8]): 1.02e+06 M⁻¹ s⁻¹ | EC50 [9]: 0.0531 µg/mL
B8: h10D8V2 (antibody, human IgG1, kappa)
heavy: not shown
light: B7 light
notes: Same variable regions as h10D8V1; differs at EU positions 356 and 358 of the constant region

binding result (mouse TIGIT): no binding (tested: about 2 µg/mL) | Kd [12]: 0.197 nM | koff [12]: 0.0002 s⁻¹ | kon [12]: 1.02e+06 M⁻¹ s⁻¹ | IC50 [1]: 0.273 µg/mL
B9: recombinant mouse anti-human TIGIT antibody m10D8 (antibody, mouse IgG2a, V domains shown)
VH: B6 VH with Q1E, Q3K, R19K, N84S, R87K, A88S
VL: DIVMTQAHKFMSTSGGDRVSITCKASQDVKTAVSWYQQKPGQSPKLLIYWASTRHTGVPDRFTGSGSGTDYTLTISSVQAEDLALYYCQQHYSTPWTFGGGTKLEIKR

IC50 [5]: 0.429 µg/mL | IC50 [6]: 2.38 nM | EC50 [7]: 1.91 nM | Kd (TIGIT-his tag antigen [8]): 0.113 nM | koff (TIGIT-his tag antigen [8]): 9.24e-05 s⁻¹ | kon (TIGIT-his tag antigen [8]): 818000 M⁻¹ s⁻¹ | EC50 [9]: 0.0536 µg/mL | Kd (TIGIT-his tag antigen [13]): 0.133 nM
B10: Tiragolumab (positive control antibody) (antibody, human IgG1, kappa, V domains shown)
VH: EVQLQQSGPGLVKPSQTLSLTCAISGDSVSSNSAAWNWIRQSPSRGLEWLGKTYYRFKWYSDYAVSVKGRITINPDTSKNQFSLQLNSVTPEDTAVFYCTRESTTYDLLAGPFDYWGQGTLVTVSS
VL: not shown
